“And” between values parts separate entries of the source, which are not always exact repeats. Identical values can stand only once.

Experiment [1] concerns the target T1, B7-H4 fusion protein Variant 5: IgC residues 154-259 of SEQ ID NO:1 (human, UniProt Q7Z7D3 154-259).
T1 construct: Human IgG1 Fc fusion protein; also called IgC only; not shown: human IgG1 Fc
T1 sequence: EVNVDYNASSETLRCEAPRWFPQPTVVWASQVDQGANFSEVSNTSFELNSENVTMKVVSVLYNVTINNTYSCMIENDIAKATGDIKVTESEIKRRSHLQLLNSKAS
Description: ELISA, B7-H4 Fc fusion protein immobilized at 1 µg/ml, mouse antibody titrated, anti-mouse Ig HRP. The procedure:
(§1) 100 μl 1 μg/ml human IgG1 Fc fusion proteins diluted in PBS consisting of different segments of B7-H4 Extracellular domains were immobilized on flat bottom 96 well plates (Costar 9017) overnight at 4° C. […] Plates were washed twice with PBS+0.1% PS-20 and blocked with 200 μl/well PBS 10% FBS at RT for 1 hr. A titration of mouse anti-human B7-H4 antibodies 2H9, 2D1, 2E11, 6H3, 8E11 or H74 diluted in PBS 10% FBS were added to the plates and incubated at RT for 1 hr. Plates were washed three times and 100 μl 1 μg/ml anti-mouse Ig HRP (Sigma) was added to each well and incubated at RT for 1 hr. Plates were washed six times and 100 μl TMB substrate (SurModics) was added to each well for 5-15 mins. 100 μl stop solution (0.1M Sulfuric acid) was added to each well. Plates were read at Absorbance 450 nm by PerkinElmer EnVision 2104 Multilabel Reader.

Experiment [2] addresses T2, B7-H4-Ig fusion protein (human).
T2 construct: also called human B7-H4 Ig
Description: competition ELISA on B7-H4-Ig-coated plate, Plate 1; competitor biotinylated mouse 6H3 (5 ng/ml). The procedure: (§2) A 12-point, 3-fold dilution series of 14 humanized 6H3 antibody variants was prepared ranging from 100 μg/ml to 0.5 ng/ml. Dilutions were prepared in assay diluent containing biotinylated mouse anti-human B7-H4 6H3 (SEQ ID NOS:3 and 5 for light chain variable region and heavy chain variable region respectively) at 5 ng/ml. Antibodies were allowed to bind to B7-H4-Ig-coated assay plates (200 ng/well) for 1 hour at room temperature and detected with streptavidin HRP.

The target of experiment [3] is T2, B7-H4-Ig fusion protein. Kind of experiment: competition ELISA on B7-H4-Ig-coated plate, Plate 2; competitor biotinylated mouse 6H3 (5 ng/ml). As for the experimental part: as §2
For experiment [4], the target named is T3, human B7-H4 expressed on cells (human, UniProt Q7Z7D3 25-282).
T3 construct: the cell line is named under assay or readout; also called full length human B7-H4 on HEK293 cells; 293T.hB7-H4
T3 sequence: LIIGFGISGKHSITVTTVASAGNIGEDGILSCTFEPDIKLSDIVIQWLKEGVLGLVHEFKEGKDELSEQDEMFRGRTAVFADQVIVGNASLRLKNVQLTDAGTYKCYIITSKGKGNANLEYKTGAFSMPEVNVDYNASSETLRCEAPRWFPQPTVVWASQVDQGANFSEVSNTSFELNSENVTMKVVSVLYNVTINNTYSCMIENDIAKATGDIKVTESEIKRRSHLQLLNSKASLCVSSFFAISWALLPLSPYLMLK
Description: saturation binding, flow cytometry on 624mel/B7-H4 cells, biotinylated mAb, azide-treated cells; unit not given. As for the experimental part: A saturation binding experiment was carried out on 624mel/B7-H4 cells using the chimeric 6H3 mAb and humanized variants of 6H3. Briefly, 50,000 cells were pretreated with 0.1% azide on ice for 30 minutes to inhibit B7-H4 internalization then stained for 30 minutes with biotinylated anti-B7-H4 mAbs. The mAbs were diluted in a 12-point, 3-fold dilution series ranging from 200 μg/ml down to 1 ng/ml. Cell were stained with streptavidin PE for 10 minutes, washed, fixed and analyzed by flow cytometry.
FIGS. 35A-35B are binding curves for the raw (FIG. 35A) and background subtracted data (FIG. 35B). […] The subtracted values were used to determine the Kd and Bmax. The antibodies appear to fall into two groups based on Kd values (Table 10).

Experiment [5] has as its target T3, human B7-H4 expressed on cells. Kind of experiment: flow cytometry on HEK293.hB7-H4 transfectants, one-site specific binding fit. As for the experimental part: For each staining, 0.2 million HEK293.hB7-H4 transfectants were resuspended in 100 μl flow cytometry buffer (PBS+2% FBS). A serial dilution of chimeric 6H3 and 14 humanized variants of 0, 0.1 ng, 0.3 ng, 1 ng, 3 ng, 10 ng, 30 ng, 100 ng, 300 ng, 1 μg, 3 μg and 10 μg were added to the cells and incubated at 4° C. for 30 min. Cells were then washed twice with 2 ml flow cytometry buffer, and resuspended in 100 μl flow cytometry buffer. 1 μl anti-hIg PE secondary antibody (Biolegend) was added and incubated with the cells for 15 mins Samples were then washed and resuspended in 100 μl flow cytometry buffer. Flow Cytometry data was acquired using BD Canto (BD Biosciences) in plate format and analyzed by FlowJo software. Staining data (MFI) was then input into Prism 5 software to generate binding curve. Curve-fit using one-site specific binding algorithm calculates individual KD for each variant.

Experiment [6] has as its target T4, mouse B7-H4ECD mIgG2a Fc fusion protein (mouse, UniProt Q7TSP5 25-257, limits assumed).
T4 construct: also called mouse B7-H4-mIg fusion protein; Mouse B7-H4-mouse-Ig Fusion Protein; not shown: mouse IgG2a Fc
T4 sequence: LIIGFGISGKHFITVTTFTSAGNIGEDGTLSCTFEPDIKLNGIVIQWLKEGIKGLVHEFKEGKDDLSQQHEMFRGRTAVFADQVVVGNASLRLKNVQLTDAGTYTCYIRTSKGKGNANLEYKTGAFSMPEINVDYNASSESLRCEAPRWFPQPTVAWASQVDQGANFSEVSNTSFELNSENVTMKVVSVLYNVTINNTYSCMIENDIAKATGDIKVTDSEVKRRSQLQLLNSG
Description: ELISA, mouse B7-H4ECD mIgG2a Fc fusion coated. As for the experimental part: 100 μg/ml mouse B7-H4ECD mIgG2a Fc fusion protein diluted in PBS was immobilized on flat bottom 96 well plate (Costar 9017) overnight at 4° C. Plates were washed twice with PBS+0.1% PS-20 and blocked with 200 μl/well PBS 10% FBS at RT for 1 hr. 100 μl chimeric 6H3 and 14 selected 6H3 humanized variants diluted in PBS 10% FBS were added to each well and incubated at RT for 1 hr. Plates were washed three times and 100 μl 1 μg/ml anti-human Ig HRP (Sigma) was added to each well and incubated at RT for 1 hr. Plates were washed six times and 100 μl TMB substrate (SurModics) was added to each well for 5-15 mins 100 μl stop solution (0.1M Sulfuric acid) was added to each well. Plates were read at Absorbance 450 nm by PerkinElmer EnVision 2104 Multilabel Reader.

In experiment [7] the target is T5, B7-H4ECD his-tagged protein (Sinobiologics) (human, UniProt Q7Z7D3 25-259).
T5 construct: Bought protein; Result paragraph calls the target human B7-H4; also called B7-H4 extracellular domain; not shown: his tag
T5 sequence: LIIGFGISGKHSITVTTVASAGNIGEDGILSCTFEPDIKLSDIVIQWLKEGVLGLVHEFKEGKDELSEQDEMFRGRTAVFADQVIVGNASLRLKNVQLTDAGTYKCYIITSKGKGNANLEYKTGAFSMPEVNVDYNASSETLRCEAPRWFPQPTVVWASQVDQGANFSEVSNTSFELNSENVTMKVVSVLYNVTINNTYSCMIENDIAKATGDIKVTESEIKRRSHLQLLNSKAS
Description: ELISA, B7-H4ECD his-tagged protein coated. As for the experimental part:
100 μl 1 μg/ml B7-H4ECD his-tagged protein (Sinobiologics) diluted in PBS was immobilized on flat bottom 96 well plate (Costar 9017) overnight at 4° C. Plates were washed twice with PBS+0.1% PS-20 and blocked with 200 μl/well PBS 10% FBS at RT for 1 hr. 100 μl chimeric 6H3 and 14 selected 6H3 humanized variants diluted in PBS 10% FBS were added to each well and incubated at RT for 1 hr. Plates were washed three times and 100 μl 1 μg/ml anti-human Ig HRP (Sigma) was added to each well and incubated at RT for 1 hr. Plates were washed six times and 100 μl TMB substrate (SurModics) was added to each well for 5-15 mins 100 μl stop solution (0.1M Sulfuric acid) was added to each well. Plates were read at Absorbance 450 nm by PerkinElmer EnVision 2104 Multilabel Reader.

In experiment [8] the target is T6, B7-H4 fusion protein Variant 3: IgV residues 29-158 of SEQ ID NO:1 (human, UniProt Q7Z7D3 29-158).
T6 construct: Human IgG1 Fc fusion protein; also called IgV only; not shown: human IgG1 Fc
T6 chain: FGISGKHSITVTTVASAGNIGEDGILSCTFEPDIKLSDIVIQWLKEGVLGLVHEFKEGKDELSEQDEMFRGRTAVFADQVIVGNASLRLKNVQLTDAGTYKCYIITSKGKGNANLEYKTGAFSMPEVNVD
Kind of experiment: ELISA, B7-H4 Fc fusion protein immobilized at 1 µg/ml, mouse antibody titrated, anti-mouse Ig HRP. The procedure:
as §1

The target in experiment [9] is T7, B7-H4 fusion protein Variant 1: IgV residues 29-149 of SEQ ID NO:1 (human, UniProt Q7Z7D3 29-149).
T7 construct: Human IgG1 Fc fusion protein; also called IgV only; not shown: human IgG1 Fc
T7 chain: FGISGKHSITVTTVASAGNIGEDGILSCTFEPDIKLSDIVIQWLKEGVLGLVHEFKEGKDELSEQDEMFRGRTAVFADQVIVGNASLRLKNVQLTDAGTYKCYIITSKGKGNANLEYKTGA
The description is as above. The procedure: as §1

Experiment [10] has as its target T8, B7-H4 fusion protein Variant 2: IgV residues 29-154 of SEQ ID NO:1 (human, UniProt Q7Z7D3 29-154).
T8 construct: Human IgG1 Fc fusion protein; also called IgV only; not shown: human IgG1 Fc
T8 chain: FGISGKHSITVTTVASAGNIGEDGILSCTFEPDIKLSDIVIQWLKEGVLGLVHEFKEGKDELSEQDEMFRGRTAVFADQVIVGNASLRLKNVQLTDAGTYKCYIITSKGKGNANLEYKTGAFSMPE
The description is as above. As for the experimental part: as §1

B1: anti-human B7-H4 antibody 2D1 (antibody, V domains shown)
VH: EVQLVESGGGLVKPGGSLKLSCAASGFTFNSHGMSWVRQTPEKRLDWVATISDGGTYTYYPVNVKGRFTISRDNAKNNLYLQMSHLKSEDTAMYYCARDGGGGAYWGQGTLVTVSA
VL: DVVMTQTPLSLPVSLGDQASISCRSSHSLVHSNGNTYLHWYLQKPGQSPNLLIYIVSNRFSGVPDRFSGSGSGTDFTLKISRVEAEDLGVYFCSQSTHVPPTFGAGTKLELK
notes: Mouse anti-human B7-H4 antibody; also called clone 2D1
As for B1, the binding result in [1] is listed as “binds”.

B2: chimeric 6H3 (antibody, V domains shown)
VH: EVQLQQSGPVLVKPGTSVKMSCKASGYTFTDYYMNWVKQSHGKSLEWIGVINPYNGDTTYNQKFKGKATLTVDKSSSTAYMEVNSLTFEDSAVYYCARYPESTYWGQGTLVTVSA
VL: DVVMTQTPLSLPVSLGDQASISCRSSQSLVHINGNTYLHWYLQKPGQSPKVLIYKVSNRFSGVPDRFSGSGSGTDFTLKISRVEAEDLGVYFCSQSTHVPLTFGAGTKLELK
notes: Mouse variable regions with constant regions from the human IgG1 heavy chain and human kappa light chain; also called human chimeric 6H3; hc6H3
Turning to B2, the EC50 with B7-H4-Ig fusion protein [2] is 2.44 µg/mL and 16.2 nM; with B7-H4-Ig fusion protein [3] it was 2.26 µg/mL and 15.1 nM; in experiment [6], 90 pM; in [7], 620 pM. In experiment [4], this molecule had a Bmax of 5810. The “Bmax(MFI)” value in experiment [5] was 316 MFI. In addition, binding in experiment [5] was characterised by a dissociation constant (Kd) of 5800 pM.

B3: anti-human B7-H4 antibody 2H9 (antibody, V domains shown)
VH: EVQLVESGGNLVKPGGSLKLSCAASGFTFSNSAMSWVRQTPEKRLEWVATISDGGRYTYYPDNVKGRFTISRDNAKNNLYLQMSHLKSEDTALYYCARDRPHWYFDVWGTGATVTVSS
VL: DIVLTQSPASLAVSLGQRATISCRASESIDNYGISFMHWYQQKPGQPPKLLIYRASNLESGIPARFSGSGSRTDFTLTINPVETDDVATYFCQQSDEGRTFGGGTKLEIK
notes: Mouse anti-human B7-H4 antibody; also called clone 2H9
Consider B3, for which the binding result in [8], in experiment [9] and in [10] was “binds” each time.

B4: humanized 6H3 variant 12 (antibody, V domains shown)
VH: EVQLVQSGAEVKKPGASVKVSCKASGYTFTDYYMNWVRQAPGQGLEWIGIINPYNGDTSYNQKFKGRVTLTVDKSTSTAYMELSSLRSEDTAVYYCARYPESTYWGQGTLVTVSS
VL: DIVMTQTPLSLPVTLGQPASISCRSSQSLVHINGNTYLHWYLQRPGQSPKVLIYKVSNRFSGVPDRFSGSGSGTDFTLKISRVEAEDVGVYFCSQSTHVPLTFGAGTKVEIK
notes: also called V12; 6H3 V12
Regarding B4, the EC50 in the experiment with B7-H4-Ig fusion protein [3] is 3 µg/mL and 20 nM; in experiment [6] it was 90 pM; in experiment [7] it was 780 pM. The same molecule displayed a Bmax in [4] of 4580. Moreover, the “Bmax(MFI)” value in experiment [5] stood at 597 MFI. In addition, the Kd in experiment [5] is 3200 pM.

Source of the values: patent publication US20150315275A1 (AstraZeneca / MedImmune, published 2015).
